In assay [1] the target is T1, GST-human NOGO-A56 (human, UniProt Q9NQC3 586-785).
T1 construct: also called hNOGO; recombinant human NOGO; not shown: Glutathione S-transferase (GST) tag encoded by vector pGEX-6P1, N-terminal to the NOGO-A fragment; the tag and linker se
T1 sequence: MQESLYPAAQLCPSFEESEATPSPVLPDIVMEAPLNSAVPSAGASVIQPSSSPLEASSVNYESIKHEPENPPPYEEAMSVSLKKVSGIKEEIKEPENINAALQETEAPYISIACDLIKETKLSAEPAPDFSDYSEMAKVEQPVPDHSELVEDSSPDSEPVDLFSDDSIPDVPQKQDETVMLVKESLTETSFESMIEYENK
Kind of assay: SPR off-rate ranking (Biacore), CHO-K1 transfection supernatant over GST-human NOGO-A56 chip; single experiment. The method, then: (§1) hNOGO (GST-human NOGO-A56) was immobilised to a CM5 chip by primary amine coupling using the Biacore Wizard program designed for targeted immobilisation levels. The CM5 sensor surface was activated by passing a solution of 50 mM N-hydroxy-succinimide (NHS) and 200 mM N-ethyl-N′-dimethylaminopropyl […] (EDC). Then hNOGO in sodium acetate buffer, pH5.0 or pH 4.5, was passed over the chip and immobilised. After immobilisation was complete any still activated esters were blocked by an injection of 1M ethanolamine hydrochloride, pH8.5.
The hNOGO chip was prepared as for kinetic analysis. Cell supernatants where taken directly from transient transfections of CHO—K1 cells. These were passed directly over the sensor surface and the interaction measured. A mock transfected cell supernatant was used for double referencing to remove any artefacts due to the tissue culture media. All runs were referenced against a blanked sensor surface (one that had been activated and blocked as described earlier but had no addition of ligand). Analysis of binding was carried out using the BIAevaluation kinetic analysis software version 4.1.
(In general: Surface plasmon resonance follows binding to a sensor surface in real time, without labels.)

Assay [2] concerns the target T1, GST-human NOGO-A56. Kind of assay: SPR (Biacore 3000), GST-human NOGO-A56 on CM5 chip, antibody as analyte; single experiment. How it is done:
(§2) The binding kinetics of the anti-NOGO monoclonal antibody (mAb) to recombinantly expressed human NOGO-A (GST-human NOGO-A56) was analysed using the Biacore3000 biosensor. The hNOGO-A chip was prepared as follows:
as §1
(§3) The anti-NOGO mAbs were diluted down in HBS-EP (10 mM HEPES, pH 7.4, 150 mM NaCl, 3 mM EDTA, and 0.005% P-20 surfactant) and binding studies were carried out at range of defined antibody concentrations. All runs were referenced against a blanked sensor surface (one that had been activated and blocked as described earlier but had no addition of ligand). Analysis of binding was carried out using the BIAevaluation kinetic analysis software version 4.1. Biacore analysis of other antibodies of the invention essentially followed the same protocol as described herein.

Assay [3] addresses T1, GST-human NOGO-A56. Nature of the assay: SPR (Biacore 3000), GST-human NOGO-A56 amine-coupled to CM5 chip, antibody as analyte; mean (SD) of four experiments. How it is done:
as §2, §1, §3

Usually koff stands for a measure of how fast the partners let go of each other. A word on the Kd: it is the concentration at which binding is half-saturated. By kon is commonly meant a measure of how fast the partners come together. Low readings indicate slow association, high ones fast association.

B1: H14L13 (antibody, human IgG1, kappa, V domains shown)
VH: QVQLVQSGAEVVKPGASVKLSCKASGYTFTSYWMHWVKQAPGQGLEWIGNINPSNGGTNYNEKFKSRATLTRDTSTSTAYMELSSLRSEDTAVYYCELGQGYWGQGTLVTVSS
VL: DIVMTQSPLSLPVTLGQPASISCRSSKSLLYKDGKTYLNWFQQRPGQSPQLLIYLMSTRASGVPDRFSGGGSGTDFTLKISRVEAEDVGVYYCQQLVEYPLTFGQGTKLEIKR
notes: Humanised 2A10; tested as CHO-K1 transfection supernatant; Human gamma-1 mutated constant region, human kappa
Regarding B1, the dissociation rate constant (koff) in assay [1] turned out to be 0.0138 s⁻¹.

B2: H10L13 (antibody, V domains shown)
VH: QVQLVQSGAEVKKPGASVKLSCKASGYTFTSYWMHWVKQAPGQGLEWIGNINPSNGGTNYNEKFKSRATLTVDKSTSTAYMELSSLRSEDTAVYYCELGQGYWGQGTLVTVSS
VL: DIVMTQSPLSLPVTLGQPASISCRSSKSLLYKDGKTYLNWFQQRPGQSPQLLIYLMSTRASGVPDRFSGGGSGTDFTLKISRVEAEDVGVYYCQQLVEYPLTFGQGTKLEIK
In assay [2], B2 had a Kd of 12.9 nM, a koff of 0.0212 s⁻¹ and an on-rate (kon) of 1.64e+06 M⁻¹ s⁻¹.

B3: H6L6 (antibody, human IgG1, kappa, V domains shown)
VH: QVQLVQSGAEVKKPGASVKVSCKASGYTFTSYWMHWVRQAPGQGLEWIGNINPSNGGTNYNEKFKSRATMTRDTSTSTAYMELSSLRSEDTAVYYCELGQGYWGQGTLVTVSS
VL: DIVMTQSPLSLPVTPGEPASISCRSSKSLLYKDGKTYLNWFLQRPGQSPQLLIYLMSTRASGVPDRFSGSGSGTDFTLKISRVEAEDVGVYYCQQLVEYPLTFGGGTKVEIKR
notes: Humanised 2A10; human gamma-1 mutated constant region, human kappa
In assay [2], B3 gave a Kd of 21.4 nM, an off-rate (koff) of 0.0254 s⁻¹ and an association rate constant (kon) of 1.2e+06 M⁻¹ s⁻¹.

B4: H15L18 (antibody, human IgG1, kappa, V domains shown)
VH: QVQLVQSGAEVVKPGASVKLSCKASGYTFTSYWMHWVKQRPGQGLEWIGNINPSNGGTNYNEKFKSKATLTVDTSSSTAYMELSSLRSEDSAVYYCELGQGYWGQGTLVTVSS
VL: DIVMTQDPLSNPVTLGQPVSISCRSSKSLLYKDGKTYLNWFLQRPGQSPQLLIYLMSTRASGVSDRFSGSGSGTDFTLKISRVEAEDVGVYYCQQLVEYPLTFGQGTKLEIKR
notes: as for B1
In turn, B4 had an off-rate (koff) in assay [1] of 0.00594 s⁻¹.

B5: H5L6 (antibody, human IgG1, kappa, V domains shown)
VH: QVQLVQSGAEVKKPGASVKVSCKASGYTFTSYWMHWVRQAPGQGLEWMGNINPSNGGTNYNEKFKSRVTMTRDTSTSTAYMELSSLRSEDTAVYYCELGQGYWGQGTLVTVSS
VL: DIVMTQSPLSLPVTPGEPASISCRSSKSLLYKDGKTYLNWFLQRPGQSPQLLIYLMSTRASGVPDRFSGSGSGTDFTLKISRVEAEDVGVYYCQQLVEYPLTFGGGTKVEIKR
notes: as for B3
On to B5, for which, in assay [2], the Kd came to 30.3 nM, the dissociation rate constant (koff) was determined as 0.047 s⁻¹ and the association rate constant (kon) was determined as 1.5e+06 M⁻¹ s⁻¹.

B6: HcL13 (antibody, human IgG1, kappa)
heavy: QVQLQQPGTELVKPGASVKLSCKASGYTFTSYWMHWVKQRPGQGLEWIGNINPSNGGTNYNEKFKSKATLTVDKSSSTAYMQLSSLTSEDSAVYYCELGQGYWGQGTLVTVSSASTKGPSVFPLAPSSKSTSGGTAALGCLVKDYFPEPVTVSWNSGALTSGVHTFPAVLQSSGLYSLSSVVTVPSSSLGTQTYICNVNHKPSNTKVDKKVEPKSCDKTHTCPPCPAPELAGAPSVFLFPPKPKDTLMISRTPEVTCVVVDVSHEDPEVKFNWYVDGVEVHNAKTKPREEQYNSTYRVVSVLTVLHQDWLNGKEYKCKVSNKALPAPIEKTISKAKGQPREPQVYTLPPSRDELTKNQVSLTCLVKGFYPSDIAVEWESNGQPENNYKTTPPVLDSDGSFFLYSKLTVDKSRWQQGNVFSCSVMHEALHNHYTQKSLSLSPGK
light: DIVMTQSPLSLPVTLGQPASISCRSSKSLLYKDGKTYLNWFQQRPGQSPQLLIYLMSTRASGVPDRFSGGGSGTDFTLKISRVEAEDVGVYYCQQLVEYPLTFGQGTKLEIKRTVAAPSVFIFPPSDEQLKSGTASVVCLLNNFYPREAKVQWKVDNALQSGNSQESVTEQDSKDSTYSLSSTLTLSKADYEKHKVYACEVTHQGLSSPVTKSFNRGEC
notes: Chimeric heavy chain Hc paired with humanised light chain L13
In assay [2], B6 had an equilibrium dissociation constant (Kd) of 1.98 nM, a koff of 0.00938 s⁻¹ and an on-rate constant (kon) of 4.8e+06 M⁻¹ s⁻¹.

B7: H6L17 (antibody, human IgG1, kappa, V domains shown)
VH: QVQLVQSGAEVKKPGASVKVSCKASGYTFTSYWMHWVRQAPGQGLEWIGNINPSNGGTNYNEKFKSRATMTRDTSTSTAYMELSSLRSEDTAVYYCELGQGYWGQGTLVTVSS
VL: DIVMTQDPLSLPVTLGQPASISCRSSKSLLYKDGKTYLNWFQQRPGQSPQLLIYLMSTRASGVSDRFSGSGSGTDFTLKISRVEAEDVGVYYCQQLVEYPLTFGQGTKLEIKR
notes: as for B1
B7: the koff in assay [1] stood at 0.0158 s⁻¹.

B8: H700L11 (antibody, human IgG1, kappa, V domains shown)
VH: QVQLVQSGAEVKKPGASVKVSCKASGYTFTSYWMHWVRQAPGQGLEWIGNINPSNGGTNYNEKFKSRATLTVDKSTSTAYMELSSLRSEDTAVYYCELGQGYWGQGTLVTVSS
VL: DIVITQSPLSLPVTLGQPASISCRSSKSLLYKDGKTYLNWFQQRPGQSPQLLIYLMSTRASGVPDRFSGGGSGTDFTLKISRVEAEDVGVYYCQQLVEYPLTFGQGTKLEIKR
notes: as for B3
In assay [2], B8 registered a dissociation constant Kd of 19.4 nM, a dissociation rate constant (koff) of 0.0233 s⁻¹ and a kon of 1.19e+06 M⁻¹ s⁻¹.

B9: H15L13 (antibody, human IgG1, kappa, V domains shown)
VH: QVQLVQSGAEVVKPGASVKLSCKASGYTFTSYWMHWVKQRPGQGLEWIGNINPSNGGTNYNEKFKSKATLTVDTSSSTAYMELSSLRSEDSAVYYCELGQGYWGQGTLVTVSS
VL: DIVMTQSPLSLPVTLGQPASISCRSSKSLLYKDGKTYLNWFQQRPGQSPQLLIYLMSTRASGVPDRFSGGGSGTDFTLKISRVEAEDVGVYYCQQLVEYPLTFGQGTKLEIKR
notes: as for B1
Molecule B9 registered a dissociation rate constant (koff) in assay [1] of 0.00965 s⁻¹.

B10: H6L14 (antibody, human IgG1, kappa)
heavy: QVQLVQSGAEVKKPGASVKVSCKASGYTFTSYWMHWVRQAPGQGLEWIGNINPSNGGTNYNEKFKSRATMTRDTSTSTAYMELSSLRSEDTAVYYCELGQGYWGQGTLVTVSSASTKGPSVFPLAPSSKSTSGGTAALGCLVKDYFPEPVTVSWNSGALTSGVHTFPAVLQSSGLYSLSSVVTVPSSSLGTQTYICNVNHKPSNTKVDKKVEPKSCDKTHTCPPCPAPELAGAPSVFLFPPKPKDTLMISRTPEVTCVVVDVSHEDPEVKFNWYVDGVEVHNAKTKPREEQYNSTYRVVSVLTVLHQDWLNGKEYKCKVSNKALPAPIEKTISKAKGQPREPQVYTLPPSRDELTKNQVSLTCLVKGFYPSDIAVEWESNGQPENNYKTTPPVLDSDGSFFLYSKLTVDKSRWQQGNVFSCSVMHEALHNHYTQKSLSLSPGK
light: DIVMTQSPLSLPVTLGQPASISCRSSKSLLYKDGKTYLNWFLQRPGQSPQLLIYLMSTRASGVPDRFSGGGSGTDFTLKISRVEAEDVGVYYCQQLVEYPLTFGQGTKLEIKRTVAAPSVFIFPPSDEQLKSGTASVVCLLNNFYPREAKVQWKVDNALQSGNSQESVTEQDSKDSTYSLSSTLTLSKADYEKHKVYACEVTHQGLSSPVTKSFNRGEC
notes: as for B1
On to B10, for which the koff in assay [1] was 0.0457 s⁻¹.

B11: H6L18 (antibody, human IgG1, kappa, V domains shown)
VH: QVQLVQSGAEVKKPGASVKVSCKASGYTFTSYWMHWVRQAPGQGLEWIGNINPSNGGTNYNEKFKSRATMTRDTSTSTAYMELSSLRSEDTAVYYCELGQGYWGQGTLVTVSS
VL: DIVMTQDPLSNPVTLGQPVSISCRSSKSLLYKDGKTYLNWFLQRPGQSPQLLIYLMSTRASGVSDRFSGSGSGTDFTLKISRVEAEDVGVYYCQQLVEYPLTFGQGTKLEIKR
notes: as for B1
For B11, the koff in assay [1] came to 0.0106 s⁻¹.

B12: H6L15 (antibody, human IgG1, kappa, V domains shown)
VH: QVQLVQSGAEVKKPGASVKVSCKASGYTFTSYWMHWVRQAPGQGLEWIGNINPSNGGTNYNEKFKSRATMTRDTSTSTAYMELSSLRSEDTAVYYCELGQGYWGQGTLVTVSS
VL: DIVMTQSPLSLPVTLGQPASISCRSSKSLLYKDGKTYLNWFLQRPGQSPQLLIYLMSTRASGVSDRFSGGGSGTDFTLKISRVEAEDVGVYYCQQLVEYPLTFGQGTKLEIKR
notes: as for B1
For the molecule B12, the koff in assay [1] was found to be 0.0211 s⁻¹.

B13: H6L16 (antibody, human IgG1, kappa)
heavy: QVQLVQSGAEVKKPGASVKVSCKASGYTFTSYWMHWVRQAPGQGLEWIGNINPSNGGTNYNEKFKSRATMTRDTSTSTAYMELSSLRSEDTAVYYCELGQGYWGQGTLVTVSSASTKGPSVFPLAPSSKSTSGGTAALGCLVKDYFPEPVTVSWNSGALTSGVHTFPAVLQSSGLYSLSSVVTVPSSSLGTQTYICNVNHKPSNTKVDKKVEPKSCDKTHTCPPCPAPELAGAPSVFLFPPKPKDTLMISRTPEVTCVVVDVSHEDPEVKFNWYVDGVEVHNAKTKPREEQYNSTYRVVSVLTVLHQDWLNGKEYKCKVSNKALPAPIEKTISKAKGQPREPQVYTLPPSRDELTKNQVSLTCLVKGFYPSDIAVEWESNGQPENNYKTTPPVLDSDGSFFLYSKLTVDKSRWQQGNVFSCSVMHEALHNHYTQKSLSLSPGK
light: DIVMTQSPLSNPVTLGQPVSISCRSSKSLLYKDGKTYLNWFLQRPGQSPQLLIYLMSTRASGVPDRFSGGGSGTDFTLKISRVEAEDVGVYYCQQLVEYPLTFGQGTKLEIKRTVAAPSVFIFPPSDEQLKSGTASVVCLLNNFYPREAKVQWKVDNALQSGNSQESVTEQDSKDSTYSLSSTLTLSKADYEKHKVYACEVTHQGLSSPVTKSFNRGEC
notes: as for B1
B13 came in with a koff in assay [1] of 0.0114 s⁻¹.

B14: H15L16 (antibody, human IgG1, kappa, V domains shown)
VH: QVQLVQSGAEVVKPGASVKLSCKASGYTFTSYWMHWVKQRPGQGLEWIGNINPSNGGTNYNEKFKSKATLTVDTSSSTAYMELSSLRSEDSAVYYCELGQGYWGQGTLVTVSS
VL: DIVMTQSPLSNPVTLGQPVSISCRSSKSLLYKDGKTYLNWFLQRPGQSPQLLIYLMSTRASGVPDRFSGGGSGTDFTLKISRVEAEDVGVYYCQQLVEYPLTFGQGTKLEIKR
notes: as for B1
B14: the off-rate constant (koff) in assay [1] was determined as 0.00604 s⁻¹.

B15: H17L16 (antibody, human IgG1, kappa)
heavy: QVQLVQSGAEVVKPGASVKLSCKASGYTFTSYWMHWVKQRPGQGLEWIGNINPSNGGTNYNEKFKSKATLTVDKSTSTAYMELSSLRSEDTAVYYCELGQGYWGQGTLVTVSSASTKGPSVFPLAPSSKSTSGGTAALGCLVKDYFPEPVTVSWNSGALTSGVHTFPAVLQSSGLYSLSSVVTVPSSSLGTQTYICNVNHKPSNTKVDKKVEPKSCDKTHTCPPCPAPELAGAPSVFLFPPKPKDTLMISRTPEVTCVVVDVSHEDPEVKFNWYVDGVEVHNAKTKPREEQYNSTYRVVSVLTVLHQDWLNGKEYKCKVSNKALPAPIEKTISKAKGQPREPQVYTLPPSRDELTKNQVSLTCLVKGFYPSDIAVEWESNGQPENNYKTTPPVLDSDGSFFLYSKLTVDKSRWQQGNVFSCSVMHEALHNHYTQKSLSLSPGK
light: DIVMTQSPLSNPVTLGQPVSISCRSSKSLLYKDGKTYLNWFLQRPGQSPQLLIYLMSTRASGVPDRFSGGGSGTDFTLKISRVEAEDVGVYYCQQLVEYPLTFGQGTKLEIKRTVAAPSVFIFPPSDEQLKSGTASVVCLLNNFYPREAKVQWKVDNALQSGNSQESVTEQDSKDSTYSLSSTLTLSKADYEKHKVYACEVTHQGLSSPVTKSFNRGEC
notes: as for B3
Consider B15, for which, in assay [3], the Kd was determined as 1.82 nM, the koff came out at 0.0061 s⁻¹ and the kon was 3.38e+06 M⁻¹ s⁻¹.

B16: HcL11 (antibody, human IgG1, kappa)
heavy: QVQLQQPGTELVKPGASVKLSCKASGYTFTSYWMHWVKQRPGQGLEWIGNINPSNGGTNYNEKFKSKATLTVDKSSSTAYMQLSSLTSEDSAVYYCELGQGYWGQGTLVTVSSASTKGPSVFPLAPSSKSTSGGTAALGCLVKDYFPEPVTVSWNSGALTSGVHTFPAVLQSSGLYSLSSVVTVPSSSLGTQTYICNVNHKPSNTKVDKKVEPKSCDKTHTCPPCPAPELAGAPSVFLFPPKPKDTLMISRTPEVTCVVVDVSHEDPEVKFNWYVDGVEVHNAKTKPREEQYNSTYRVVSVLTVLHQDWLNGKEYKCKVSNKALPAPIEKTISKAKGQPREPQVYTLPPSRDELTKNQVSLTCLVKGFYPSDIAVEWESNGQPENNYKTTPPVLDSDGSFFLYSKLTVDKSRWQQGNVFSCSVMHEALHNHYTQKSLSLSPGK
light: DIVITQSPLSLPVTLGQPASISCRSSKSLLYKDGKTYLNWFQQRPGQSPQLLIYLMSTRASGVPDRFSGGGSGTDFTLKISRVEAEDVGVYYCQQLVEYPLTFGQGTKLEIKRTVAAPSVFIFPPSDEQLKSGTASVVCLLNNFYPREAKVQWKVDNALQSGNSQESVTEQDSKDSTYSLSSTLTLSKADYEKHKVYACEVTHQGLSSPVTKSFNRGEC
notes: Chimeric heavy chain Hc paired with humanised light chain L11
Regarding B16, in assay [2], binding was characterised by a dissociation constant (Kd) of 3.55 nM, the off-rate (koff) came out at 0.0134 s⁻¹ and the kon worked out at 3.78e+06 M⁻¹ s⁻¹.

The values are drawn from US20110054149A1 (published 2011).
